Results as given in the DeepSol protein solubility set.

Test: soluble on expression in E. coli; label from the status in PepcDB or PDB records

Row | Sequence | soluble on expression in E. coli
1 | MSLQVQKSFKEQTAYGKLYLVPTPIGNLQDMTFRSIAILKKVDYIAAEDTRNTGLLLKHFDISTRQLSFHEHNAFEKIPDLLKLLKSGNSLAQVSDAGLPSISDPGYDLVRAAIQEDIAVIALPGASAGITALIASGLAPQPHIFYGFLPRKSGQQKSFFEEKKYYPETQIFYESPYRVQETLENILSVYGDRQIVLTRELTKLYEEYQRGNISEILTYIAENPLKGECLLLVSGYDHQEKEQQVSEVELKHLVEALVKEGMKPNQAIKKVAKENDFNRQELYQLYHELQEGHHHHHH | soluble
2 | MHVVYPGSFDPLTNGHLDVIQRASRLFEKVTVAVLENPSKRGQYLFSAEERLAIIREATAHLANVEAATFSGLLVDFVRRVGAQAIVKGLRAVSDYEYELQMAHLNRQLYPGLETLFILAATRYSFVSSTMVKEIARYGGDVSKLVPPATLRALKAKLGQ | soluble
3 | GMTQKEWPLWEVFVRSKQGLEHKHCGSLHATDAQQALHMARDVYTRRQEGVSIWVVPSTAITASAPEEKPELFDPMADKIYRHPTFYQLPDEVNHM | soluble
4 | MGSDKIHHHHHHMKKYKNSLYVLALCGTMAACKPHIEEPSIDKGSLDVTKYVAVGNSITSGYADNALYYDGQQVSFANLLSGQFSKIGGGEFKQPLVSQTSVGVGSTGGARLKLALKTDCLGNTSLSPVPVAASGDLSIFGNIYSSAGPFNNMGVPGAKSVTTIYHGYGNPGNGLGKFNPFFTRMASNPATASILQDAMAQNPTFFTLFIGSNDVLLYALAGAANDSITPVAGGPGVGFDASMDAIVNTLVSGGAKGAIGNVPDITSLPYFTTVPYNGLVLTSQAQVDALNTAYTPFGITFHLGQNPFIIADAAAPGGRRQITSSEYVLLSVPQDSLKCNQWGSAKPIPNQYILTASEISNIRTAITNYNSKIKNLAAAHGLAFVDVNSFLMMAETGITYNGINLNTTFVSGGAFSLDGVHLTPIGNAMLANEFIKSINMTYGSTLPLIDATKYSGVKFP | not soluble
5 | MGSDKIHHHHHHMLSAKIEVYDSRFYQLVGTEARLEELFDKAIWAEGPVWLEKQQAVIFSDVKGNTMYRWTAEQGTQIFRQPSQFANGNAVDAAGNLITCEHGRRAISLTDHAGNIRVLVNKLEGKRLNSPNDVVVKSDGTIWFTDPPYGILSDAEGKKSPSEIIGCYVYCYDPITDDIHIATFNVMRPNGLAFCENETKLVVADMSVVEFKRTGLHHLVVFDVIDNQLYNRTSIAAISPGIPDGFCIDHNNVIYCSCETGLLVLLLDGTFLGRILLDKTASNCTFGLDQKTLFITATNSLYCLTFK | not soluble
6 | MGSDKIHHHHHHMRTYRLVIACPDRVGIVAKVSNFLALYNGWINEASHHSDEQSGWFFMRHEIRAESLPFGIEAFREAFAPIAEEFSMTWRITDSAQKKRVVLMASRESHCLADLLHRWHTDELDCEIPCVISNHNDLRSMVEWHGIPFFHVPVDPKDKAPAFAEVSRLVQEHAADVVVLARYMQILPPQLCRDYAEKVINIHHSFLPSFVGAKPYHQAALRGVKLIGATCHYVTEELDAGPIIEQDVVRVSHADSIEDMVRFGRDVEKMVLARGLRYHLEDRVLVHGNKTVVFD | not soluble
7 | MGSDKIHHHHHHMGYKNILIDFDDTIVDFYDAEEWAFHYMANVFNHKATKDDFLTFKKINHQHWEAFQQNKLTKSEVLSERFVNYFKHHQMEVDGHRADVLFRNGLAEAKVKYFDQTLETIVELSKRHDLYIVTNGVTETQKRRLNQTPLHKYIKKIFISEETGYQKPNPEFFNYVFNDIGEDERQHSIIVGDSLTSDILGGINAGIATCWFNFRGFDHNPGIIPDYEINSWKQLNDIVR | not soluble
8 | ATPALRFVAVGDWGGVPNAPFHTAREMANAKEIARTVQILGADFILSLGDNFYFTGVQDINDKRFQETFEDVFSDRSLRKVPWYVLAGNHDHLGNVSAQIAYSKISKRWNFPSPFYRLHFKIPQTNVSVAIFMLDTVTLCGNSDDFLSQQPERPRDVKLARTQLSWLKKQLAAAREDYVLVAGHYPVWSIAEHGPTHCLVKQLRPLLATYGVTAYLCGHDHNLQYLQDENGVGYVLSGAGNFMDPSKRHQRKVPNGYLRFHYGTEDSLGGFAYVEISSKEMTVTYIEASGKSLFKTRLPRRARP | soluble
9 | MSEIKLNYHKTHFLTSAPNIRSIPEDTGIEIAFAGRSNAGKSTALNALTNQKNLARTSKTPGRTQLINLFEVEPNCKLVDLPGYGYAAVPEQMKIQWQKSLGEYLQKRECLAGLVVLMDIRHPLKDLDQQMIEWAVSANLPVLLLLTKADKLSQSARSKQVKMVREAILPFQGDIQVEAFSAQNKIGIDKLAVKLDFWFSPLFAE | not soluble
10 | MGSDKIHHHHHHMASESNQVIQRLFQRFFRDELAGLSPADRAAFESEFEGRYGELLDRSSSATTTSFADLVGFGDGPIKPFDSLQMPLLRNDFDESIIPPQLQASAELYYIYQMDRMKLFQVVDVLRRLFQNGQIRIQRGPGARGLYILEKWRPIRYKRRDRLIAYRRVFNYGRAPVPAGAIVNRSFHFQLVAFMNAMSQYFQDLTIGQVIRGSSTINDRPFAALATVQRVGTDLRYHLDRSSYGNILALTRETGQYVQQIFELFDAPDIKKSFDANTKWDVIEAVANRHLGGATEMSERAKMADAGRRILQYIAENDFRTTITPAEFDADAKKMGAQADAWLAAYRLTREGRRFPGLDGDRVHWSYGLNRNTASRIAA | not soluble
11 | MAHHHHHHMSLPIMSVVRMAVQELPLLSFAPTSLVSDGCVFLPTLSDCSAFAGCSITSATLQCDGTLLIKVVPAILRLIPLKGISSSHGYSSLAAGGSHSEAVALLKGLPTVRLQAVSPVFPLFTPGGCVEYFSATSQQTTAAVPVLTNTIREHLRRLRAYVPQHLDELVPSAPSKVSSWFVVSYPGADAVPEPCLFVLPDVLVVRTVMSQVGSRKIPPHHKRSVAVMGQSGVAKLLEELKWSGCAVRVVDDANHVCVLPPTLTAASQMKQVTH | soluble
12 | MFKKALFILSLCPSFALAQSYVVYDFTHNRVLESHASDSIQPIASVTKLMTANVFLENNKNPNCRIAITKEDTDRIKGTGTKLPKNIPISCNELLKAMLVHSDNYAAHALSRAAGISRRQFIKKMNEKAHQLGMYSTRFHDSSGLSSYNISSPMDLVKLAKYSLNKSDIKRLSNLSATYIQAGKQKLYIKNTNKLVRDEIFDAAVNKTGYIQESGYNLVFINKHRCKNATIGVISLNNTSSAYRSSFTKSKLEKFGCTALNGRTIRDVAGEAQYEDGYDEVGFNTLIQKLSK | not soluble
13 | MAHHHHHHMTTTASPQTGSSPTVPTPVAPPSIDEALSYWIGLSRLIHRVCVTSDSTPSADEGEPSTFTRYALHCVLLCCGIKQHRVRQTADHMLAQLLSAAYTTAAALTGPVVLLDSESPASTPFRSPVRQLPVPLPVLVADWLKQSSADDQKASQHNRYCLRVPAVTWTRSIIKWLGSELRGQMISLRPLSRWNMVCAQQSGRMPVVIFVGGASGAGKSTLASLVASQLRVPNVLSTDTVRQVLRARLCGHEAQFPALFVSTYEAHKVTADDSHASADDGSAVPHAQSADENAIVQGYEAQCELVLRVLDGMLARLLARRESIVVEGVHLLPRYLAAKRAELLVSRVACVPVLVRIPKADSHLERLCIRARGMSMRAQNNKYIASFKAIRAIQAHLVDSVEAASLPVLVLSNTNMDKSFTALHHTLLETMEYAAVHGWPADAAAAADVPLTGLVFRAVKDRLVAVVRQRRWRRSATNDNISTSSGTGASAPGDEEKGGVATGPFSALVLAPHARPPVHSPAGSSNGAAPRARSAELLGVVQRCLLEQGLRYHSRTSNAQVDAATVYGSSGVLGARDASSRFHAHVVIRRSFTIAAKSHISMTASSHLPLDNHNEEFDELEIPSLIGS | not soluble
14 | EVQLQESGPGLVKPYQSLSLSCTVTGYSITSDYAWNWIRQFPGNKLEWMGYITYSGTTDYNPSLKSRISITRDTSKNQFFLQLNSVTTEDTATYYCARYYYGYWYFDVWGQGTTLTVSSAKTTAPSVYPLAPVSSVTLGCLVKGYFPEPVTLTWNSGSLSSGVHTFPAVLQSDLYTLSSSVTVTSSTWPSQSITCNVAHPASSTKVDKKIEPR | soluble
15 | MNQSCPNKTSFKIAFIQARWHADIVDEARKSFVAELAAKTGGSVEVEIFDVPGAYEIPLHAKTLARTGRYAAIVGAAFVIDGGIYDHDFVATAVINGMMQVQLETEVPVLSVVLTPHHFHESKEHHDFFHAHFKVKGVEAAHAALQIVSERSRIAALV | soluble
16 | MAEEKVKDEAMQIMGMFQILPRLVVFDLDYTLWPFYCECRSKREMPSMYPQAKGILSALKEKGIEMAIASRSPTSDIANTFLDKLNIKPMFVAKVSKMGVTSILVGDGVTLGAFRQGLTEFTQNHNSIEKNKQVWRDKYSGKPTSSETDKD | soluble
17 | MGYCVLHLEKAKGADSGMSAHIERTIVPKNIDPTRTHLNRELIMFPDGVCNRTLAIRHRLDTAGLKRKIGKNQVQAIRIVLSGTHEDMARMEDEGRLGEWCDDSVAWLRETYGAENLVSAVLHMDEETPHIHATVVPIVQGERRKQKKEENARRRYRTKAPAPRLCADEVMSRASLIRYQDTYAEHMEKYGLKRGVRGSLAKHLSTHEYYRSLITQGEDIQANIATLLSRETEASRIIAEAEQAKQELARIKAETKTVELKNSAARTATAALNGIGSLLGSNKMSRLESENRQLHGEVAELKESIEQMRTDMQKMRDSYTAEQLRVSEQHQREIGNFRRIIDKAKEWFPILAEFLRIERICRSVGLSERHTDELLQGKVLVVTGKLFSDEYKRSFTVEKVRLKVGREERDGKTVLDLLVDRVPIAAWFKEKWEKVSINRFRRNEMTIQKERGVRLLEHHHHHH | not soluble
18 | SNAEKAVLIGEKEADITFVTWGSQKGPILDVIEDLKEEGISANLLYLKMFSPFPTEFVKNVLSSANLVIDVESNYTAQAAQMIKLYTGIDIKNKILKYNGRHMTEDEILKSAKEILNK | soluble
19 | MGDDEARSWIRGDETAKQMLSRVLKDRAFLLIPPLHRVPLRAGNVVEITGASTSAKTQILIQAAISCILPKTWNGIHYGGLGKLVLFLDLDCRFDVLRLSQMLKHRLLQANWLGNGAWWQLEESNVKSCKSAEEKTKTVFDEELYASCMKRFLYVRCYDSLELLSSLKTLHYRIQQQEACGSQVGVLMIDSIGAFHWTDRLSSSLALETHNRKSLSLTNVVETIVQELKKLLLVHSLVVLATKGTIYEEKYPANENNRKVSSNDHFSGNVASKAQQPPFREFMPSSWQAFVTHKIIIRKSADYQSLQTGQQNLLAYSLEWLQPQLSRIDRFIVDDVRKLTTIKPFYSKLLLIYIVIPASSSHAVWYCHCLVT | soluble
20 | VTDVLLCVGNSMMGDDGAGPLLAEKCAAAPKGNWVVIDGGSAPENDIVAIRELRPTRLLIVDATDMGLNPGEIRIIDPDDIAEMFMMTTHNMPLNYLIDQLKEDIGEVIFLGIQPDIVGFYYPMTQPIKDAVETVYQRLEGWEGNGGFAQLAVEEE | soluble
21 | MAATSRPERVWPDGVIPFVIGGNFTGSQRAVFRQAMRHWEKHTCVTFLERTDEDSYIVFTYRPCGCCSYVGRRGGGPQAISIGKNCDKFGIVVHELGHVVGFWHEHTRPDRDRHVSIVRENIQPGQEYNFLKMEPQEVESLGETYDFDSIMHYARNTFSRGIFLDTIVPKYEVNGVKPPIGQRTRLSKGDIAQARKLYKCPA | soluble
22 | MGSSHHHHHHGKTIFVIVPTNEEQVAFLEALAKQDELNFDWQNPPTEPGQPVVILIPSDMVEWFLEMLKAKGIPFTVYVEEGGSENLYFQGGGGGGRAAGTGDFTAAQRTNTLAVLQAFGRAIPKLGEKWAGNDFCSWEAVLCNAPDVYVSGISPTYAGTLPEMPVNVDYRHVVIKQLDFSEMGPGLSGTLPASWHSMTSLESLSIEKCESISGSVPPEWGSMTSLSVLNLRGTGISGTLPPQWSGMSKARSLQLQDCDLSGSLPSSWSAIPMLASVSLKGNKFCGVCRTRGIRRLVLLWTSRTSTRAATAWLLRTAQRPPLSPPPRQRPPRTSLTFPLRRGPRLSRLPQPALRHRLNPQPPLRHRLNPRPLLPQQTRRLLHQRRSARWMGVRCARGTPLRGARGAVRTTS | not soluble
